Laboratory results published in PMC6656774, “Functional importance of the oligomer formation of the cyanobacterial H^+ pump Gloeobacter rhodopsin” (Scientific Reports, 2019).
Read-outs that look alike come from different tables or passages of the source.

Key:
[1] = target: T1, Asp121 (UniProt position 121, AYRYVDWLLTV); settings: DDM-solubilized, monomeric; cited from earlier work
[2] = target: Asp97 (UniProt position 97, VFRYIDWLLTV); settings: monomeric proteorhodopsin; cited from earlier work
[3] = target: T1, Asp121; experiment: UV-vis; settings: room temperature; 0.3 M NaCl; 6-mix buffer (1.37 mM citric acid, 0.46 mM ADA, 1.04 mM MOPS, 1.25 mM TAPS, 0.81 mM CHES, 1.39 mM CAPS); pH adjusted with HCl or NaOH; unphotolyzed (dark) state, retinal-bound, in nanodisc
[4] = target: the molecule itself; experiment: sucrose density gradient centrifugation + absorption spectra (MSP amount per GR from A280); higher-density nanodisc band NDH, reconstituted at pH 5.5, separated on a 10-40% sucrose gradient; spectra in 6-mix buffer, pH 7, 0.3 M NaCl, set to the same peak at about 540 nm

**Q.** For “Gloeobacter rhodopsin H87M, DDM-solubilized (Gloeobacter violaceus; H87M)”, which pKa [1] is on record?
**A.** approximately 4

**Q.** With “Proteorhodopsin (PR), monomeric (uncultured marine gamma-proteobacterium (the article says only that the gene came from a DNA fragment of gamma-proteobacteria))” as the molecule, how does the pKa [2] read?
**A.** 7.5–7.7

**Q.** Which pKa [3] does the source give for “Gloeobacter rhodopsin (GR), wild type, monomer in nanodisc (NDL) (Gloeobacter violaceus)” here?
**A.** 7.41

**Q.** Which pKa [3] does the source give for “Gloeobacter rhodopsin H87M, monomer in nanodisc (Gloeobacter violaceus; H87M)” here?
**A.** approximately 3.72

**Q.** With “Gloeobacter rhodopsin (GR), wild type, trimer in nanodisc (NDH) (Gloeobacter violaceus)” as the molecule, how does the pKa [3] read?
**A.** 4.52

B1: Gloeobacter rhodopsin (GR), wild type, C-terminal His-tagged (natural protein, Gloeobacter violaceus, UniProt Q7NP59 1-298, looked up)
chain: MLMTVFSSAPELALLGSTFAQVDPSNLSVSDSLTYGQFNLVYNAFSFAIAAMFASALFFFSAQALVGQRYRLALLVSAIVVSIAGYHYFRIFNSWDAAYVLENGVYSLTSEKFNDAYRYVDWLLTVPLLLVETVAVLTLPAKEARPLLIKLTVASVLMIATGYPGEISDDITTRIIWGTVSTIPFAYILYVLWVELSRSLVRQPAAVQTLVRNMRWLLLLSWGVYPIAYLLPMLGVSGTSAAVGVQVGYTIADVLAKPVFGLLVFAIALVKTKADQESSEPHAAIGAAANKSGGSLIS
modifications: retinal bound by a protonated Schiff base linkage (residue not given)
notes: Gloeobacter rhodopsin, H+ pump from the cyanobacterium Gloeobacter violaceus; The same protein was trapped as a trimer (nanodisc band NDH) and as a monomer (nanodisc band NDL) after reconstitution at pH 5.5; also called wild-type GR; trimeric GR (in NDH); source: E. coli BL21(DE3), solubilized with DDM, purified (Ni-NTA agarose); reconstituted into MSP1E3D1/POPC nanodiscs or kept in DDM
**Q.** Which “MSP amount per GR, NDL against NDH” value [4] does the source give for B1 here?
**A.** 3.3 fold

**Q.** What about the “stoichiometry N” value [4] of the same molecule?
**A.** 3
